Results on 2 substances are retold here after paper PMC4856479.

In assay [1] the target is isolated HOIP-RBR/UbcH5B~ubiquitin complex (UniProt Q96EP0). Briefly: AUC.
Assay [2] has the same target. Briefly: ITC. A general note: In ITC the heat of successive injections is recorded.

As usually defined, the stoichiometry N is a count of units in the complex or per binding partner. In assay [1], “isolated HOIP-RBR/UbcH5B~ubiquitin complex (from UniProt Q96EP0 696-1072; P62837 2-147; P0CG48 1-76)” registered a stoichiometry N of 2.
One may read the Kd as a measure of binding affinity in units of concentration. A high value points to lower affinity. In assay [2], “mono-ubiquitin (untagged, native N- and C-termini) (from UniProt P0CG48 1-76) (natural protein)” displayed a dissociation constant (Kd) above 50 µM.
